According to PMC9109717:

Substrate: Nc1ncnc2c1ncn2[C@@H]1O[C@H](CO)[C@H]2OP(=O)(O)O[C@H]21
Assay: purified protein
Assay type: biochemical, Thermobifida fusca
Conditions: pH 7.5

B1: (Thermobifida fusca YX) (protein)
chain: MPEHDSTDDKHGIPPLDLRFWAKERGLRGKTYPLVCHSLDAAAAALVLWNEYLSPGLRDTIASSMETDEEHAGHCIAFWAGLHDIGKLTREFQQQIAIDLSAYPGEELSGEQRSHAAATGKWLPFALPSLGYPNGGLVTGLVAQMLGGHHGTFHPHPSFQSRNPLAEFGFSSPHWEKQRHALLHAVFDATGRPTPPDMLDGPTASVVCGLVILADWLVSQEDFLLERLTSLPADGSASALRAHFETSLRRIPSLLDAAGLRPITVPPATFTESFPHLSKPNGLQASLAKHLPCLCTGPGLVLITAPMGEGKTEAAYHVADLLGKATGRPGRFLALPTMATADQMHTRLKEYARYRVENTDLPRSSTLALLHSMAWLNPDYAPADLPGVSKVLSNLGHRDPFAATDWLMGRKRGLLAPWAVGTIDQALMAVLRAKHNALRLFGLAGKVVVVDEAHAVDPYMQVLLEQLLRWLGTLDVPVVLLSATLHHSIANSLVKAYLEGARGRRWNRSEPQPVSEVSYPGWLHVDARIGKVTRSSDVDPLPIATTPRKPLEVRLVDVPVKEGALNRSTVLAKELTPLVKQGGCAAIICTTVAEAQGVYDLLSQWFATLGEDAPDLYLLHSRFPNRQRTEITATIVDLFGKEGAQSGRRPTRGAVLVATQVVEQSLDLDVDLMISDLAPVSLLLQRAGRCWRHEHLGIINRPQWAKQPELVVLTPEQNGDADRAPWFPRSWTSVYPLALLQRTYTLLRRRNGAPVQIPEDVQQLVDDVYDDDSLAEDLEADMERMGEELAQRGLARNAVIPDPDDAEDNLNGLTEFSFDVDEHVLATRFGAGSVRVLCYYVDTAGNRWLDPECTVEFPEQGTGREGRFTMADCRDLVARTIPVRMGPWASQLTEDNHPPEAWRESFYLRDLVLIPQRVTDEGAVLPTETGGREWLLDPCKGLIF
**Q.** B1 was tested. Which Km did it give?
**A.** Its Km is 27 (±6) mM.
